Tests used:
[1] = molecular target: polyclonal IgG (Gammanorm, Octapharma, Sweden); assay: SPR (Biacore 8K+), variant amine-coupled to CM5, Gammanorm as analyte, steady state fit
[2] = molecular target: polyclonal IgG (Gammanorm, Octapharma, Sweden); assay: SPR (Biacore 8K+), variant amine-coupled to CM5, Gammanorm as analyte, 1:1 kinetic fit
[3] = molecular target: polyclonal IgG (Gammanorm, Octapharma, Sweden); assay: as above; remark: listed apart in the source
[4] = molecular target: polyclonal IgG (Gammanorm, Octapharma, Sweden); assay: SPR (Biacore 8K+), variant amine-coupled to CM5, Gammanorm as analyte, steady state fit; remark: listed apart in the source
[5] = molecular target: polyclonal IgG (Gammanorm, Octapharma, Sweden); assay: SPR (Biacore 8K+), steady state fit; summary table, differs from Table 10
[6] = molecular target: polyclonal IgG (Gammanorm, Octapharma, Sweden); assay: SPR (Biacore 8K+), 1:1 kinetic fit; summary table, differs from Table 10

Kd [1]	Kd [2]	Kd [3]	Kd [4]	Kd [5]	Kd [6]	Binder
38 nM	9 nM	–	–	–	–	pAM247 (Protein L C4 domain; N10H, N45H, N60Q) (designed binder) PKEEVTIKVHLIFADGKTQTAEFKGTFEEATAEAYRYADLLAKVHGEYTADLEDGGYTIQIKFAGKEQPGENPG
101 nM	42 nM	–	–	–	–	pAM235 (Protein L B1 domain; N10H, N45H, N60Q) (designed binder) SEEEVTIKAHLIFANGSTQTAEFKGTFEKATSEAYAYADTLKKDHGEYTVDVADKGYTLQIKFAGKEKTPEE
41 nM	7 nM	–	–	–	–	pAM254 (Protein L B5b domain; H, H, Y at positions 10, 45, 60) (designed binder) KEQVTIKEHIYFEDGTVQTATFKGTFAEATAEAYRYADLLSKEHGKYTADLEDGGYTIYIRFAGKEEPEE
46 nM	11 nM	12 nM	45 nM	–	–	pAM114 (wt B3 domain of Protein L) (protein) PKEEVTIKANLIYADGKTQTAEFKGTFEEATAEAYRYADLLAKENGKYTVDVADKGYTLNIKFAGKEKTPEE
82 nM	25 nM	–	–	–	–	pAM238 (Protein L B3 domain; N10H, N45H, N60Q) (designed binder) PKEEVTIKAHLIYADGKTQTAEFKGTFEEATAEAYRYADLLAKEHGKYTVDVADKGYTLQIKFAGKEKTPEE
187 nM	87 nM	–	–	–	–	pAM241 (Protein L C1 domain; H, H, Q at positions 10, 45, 60) (designed binder) PEEEVTIKAHLIFADGSTQNAEFKGTFAKAVSDAYAYADALKKDHGEYTVDVADKGLTLQIKFAGKKEKPEE
324 nM	146 nM	–	–	–	–	pAM255 (Protein L C1 domain; H, H, Y at positions 10, 45, 60) (designed binder) PEEEVTIKAHLIFADGSTQNAEFKGTFAKAVSDAYAYADALKKDHGEYTVDVADKGLTLYIKFAGKKEKPEE
49 nM	17 nM	–	–	47 nM	15 nM	pAM246 (Protein L C3b domain; N10H, N45H, N60Q) (designed binder) PKEEVTIKVHLIFADGKIQTAEFKGTFEEATAKAYAYADLLAKEHGEYTADLEDGGYTIQIKFAGKETPETPEE
98 nM	47 nM	–	–	–	–	pAM257 (Protein L C2 domain; H, H, Y at positions 10, 45, 60) (designed binder) PKEEVTIKVHLIFADGKTQTAEFKGTFEEATAKAYAYADLLAKEHGEYTADLEDGGNTIYIKFAGKETPETPEE
134 nM	65 nM	–	–	118 nM	54 nM	pAM245 (Protein L C3 domain; H, H, Q at positions 10, 45, 60) (designed binder) PKEEVTIKVHLIFADGKIQTAEFKGTFEEATAKAYAYANLLAKEHGEYTADLEDGGNTIQIKFAGKETPETPEE
83 nM	39 nM	–	–	–	–	pAM243 (Protein L C2 domain; H, H, Q at positions 10, 45, 60) (designed binder) PKEEVTIKVHLIFADGKTQTAEFKGTFEEATAKAYAYADLLAKEHGEYTADLEDGGNTIQIKFAGKETPETPEE
120 nM	55 nM	–	–	–	–	pAM259 (Protein L C3 domain; H, H, Y at positions 10, 45, 60) (designed binder) PKEEVTIKVHLIFADGKIQTAEFKGTFEEATAKAYAYANLLAKEHGEYTADLEDGGNTIYIKFAGKETPETPEE
